In US20240083958A1, “G PROTEIN PEPTIDOMIMETICS” (VRIJE UNIVERSITEIT BRUSSEL, priority 2020, published 2024):
Read-outs that look alike come from different tables or passages of the source. Values belong to the molecule of their own block, whether it stands above or below them. Bridge positions count the residues as written; N and C are the ends. Square brackets hold non-standard residues; d marks the D form. Primed or numbered codes have the meaning given here. Triazole bridges read from a SMILES are 1,4-linked. Peptide text beside a SMILES is read from it. ξ: configuration not given here. Pra″ = alkyne-bearing residue joined to Azk by a CuAAC triazole staple; Azk = residue with azidated side chain, clicked to Pra; Pra′ = residue with alkynyl side chain, clicked to Azk; Lys(N3) = [N-]=[N+]=NCCCC[C@H](N)C(=O)O; 1Nal = N[C@@H](Cc1cccc2ccccc12)C(=O)O; 2Nal = N[C@@H](Cc1ccc2ccccc2c1)C(=O)O; Cha = N[C@@H](CC1CCCCC1)C(=O)O; Ile(3ξ) = CCC(C)[C@H](N)C(=O)O; S5 = C=CCCC[C@](C)(N)C(=O)O; Pra = C#CC[C@H](N)C(=O)O

How the values were obtained:
[1] = target: T1, human β2AR (Homo sapiens, UniProt P07550, N187E); assay: Radioligand binding assay (RLA) with human β2AR, 3H-dihydroalprenolol (DHA) as radioligand, isoproterenol (agonist) as cold competitor, in presence and absence of the peptidomimetic; parameters: key to Shift: ratio IC50 basal (no peptide) / IC50 with peptidomimetic
T1 construct: made in house; host or cells: Sf9 insect cells (Bac-to-Bac baculovirus); membrane extracts
Method: β2AR365N constructs were expressed in Sf9 insect cells, using the Bac-to-Bac® Baculovirus Expression System. The membrane extracts were prepared from cells that expressed β2AR. Subsequently, the cell pellet was resuspended in a buffer (1 ml buffer/2×1E7 cells) containing 75 mM Tris pH 7.4, 12.5 mM MgCl2, 1 mM EDTA, Leupeptin and PMSF as protease inhibitors. Afterwards the cells were vortexed and homogenized in ice using a small volume Ultraturrax (6×10 sec). The cells were then centrifuged for 15 min at 16000 rcf, in a pre-cooled centrifuge (4° C.) and resuspended in the previous buffer containing 10% sucrose. Finally, the membranes were again homogenized in ice with the small volume Ultraturrax (3×10 sec). The protein concentration in the membrane fragments was determined using a Pierce BCA Protein Assay Kit and the protein concentration was extrapolated from the Bovine Serum Albumine standard curve.
To perform the radioligand competition binding assays, 96-well plates were used. For the assays on β2AR, the membrane extracts as well as the peptides were prepared in a binding buffer (75 mM Tris pH 7.4, 12.5 mM MgCl2, 1 mM EDTA, 0.2% BSA). The ligand (isoproterenol) and radioligand ([^3H]-dihydroalprenolol) were dissolved in ligand buffer (75 mM Tris pH 7.4, 12.5 mM MgCl2, 1 mM EDTA, 0.2% BSA and 0.1% ascorbic acid), at 1 mM and 2 nM, respectively. A ten-fold dilution series of the ligand was prepared to obtain a dose response curve. For each reaction 100 μl membrane extract, 50 μl ligand, 50 μl peptide or binding buffer containing 1% DMSO and 50 μl of radioligand was added to the V-bottom storage plate, with a total volume of 250 μl per well. Afterwards, the plates were incubated at room temperature for 2 h on a plate shaker (150 rpm). The samples were harvested into filter plates and washed with ice cold washing buffer (75 mM Tris pH 7,4) using the 96-well harvester. The plates were dried for 1 h at 50° C. and then sealed to allow the addition of 30 μl scintillation liquid to each well. Finally, the top of each plate was sealed and the plates were placed in a Wallac MICROBETA® Trilux scintillation counter and incubated for 30 min in the dark.
After the Microbeta scintillation counter, the experimental data was further analyzed using Graphpad Prism 6.0. After normalization of the raw data, a nonlinear regression was used to fit the data in a one-site binding model, with the total binding set as 100% and the non-specific binding between 0 and 5%. The IC50 values, obtained from the competition curves, were used to determine the shift for each peptide, which is the ratio of IC50 of the agonist test compound on the basal conformation (e.g. IC50 β2AR with no peptidomimetic) versus the active conformation (e.g. IC50 β2AR+peptidomimetic) of the receptor. For certain peptide analogues, a biphasic binding curve was observed and therefore fitted by a two-site model (nonlinear regression), resulting in two IC50 values (IC50Hi and IC50Lo) and a FractionHi, the fraction of receptors in the active state.
Synthesised peptidomimetics were evaluated using a radioligand binding assay (RLA) with a human β2AR, using ^3H-dihydroalprenolol (DHA) as the radioligand and increasing concentrations of isoproterenol (agonist) as cold competitor. In particular, the pharmacological stabilization of the receptor in the active conformation was evaluated by performing the radioligand displacement assay (RLA) in the presence and absence of the peptidomimetics. This validated assay quantifies the pharmacological stabilization of the receptor in the active conformation by comparing the affinities of an agonist for the basal versus the active GPCR conformer (Pardon et al. (2018) Angewandte Chemie International Edition 57, 5292-5295). During the assay, the binding affinity of an orthosteric agonist for the receptor, in particular isoproterenol for human β2AR, in presence and absence of the allosteric peptidomimetic was determined. […]

[2] = target: T2, human β2AR (human, UniProt P07550 2-365); assay: cell-based or functional assay
[3] = target: T2, human β2AR; assay: cell-based or functional assay; remark: listed apart in the source
[4] = target: T2, human β2AR; assay: cell-based or functional assay; remark: listed apart in the source
[5] = target: T2, human β2AR; assay: cell-based or functional assay; remark: listed apart in the source
[6] = Table 18a overview, averaged values of IC50 shift
[7] = Table 6, ratio IC50 β2AR alone / IC50 β2AR + peptidomimetic
[8] = Table 1, ratio IC50 β2AR alone / IC50 β2AR + peptidomimetic
[9] = Table 18b overview, averaged values of IC50 shift

Molecule: Ac-FN[PraCRDAzk]IQRMHLRQYELL-OH (Ac-FN[Pra′]CRD[Azk]IQRMHLRQYELL-OH; triazole 3-7) [compound 12]
- Shift ([1]; Table 8, ratio IC50 β2AR alone / IC50 β2AR + modulator): 37

Molecule: CCC(C)[C@@H]1NC(=O)[C@@](C)(NC(=O)[C@H](CC(=O)O)NC(=O)[C@H](CCCNC(=N)N)NC(=O)[C@H](CS)NC(=O)[C@H](CC(=O)O)NC(=O)[C@H](CC(N)=O)NC(=O)[C@H](Cc2ccccc2)NC(C)=O)CCC/C=C\CCC[C@@](C)(C(=O)N[C@@H](Cc2c[nH]cn2)C(=O)N[C@@H](CC(C)C)C(=O)N[C@@H](CCCNC(=N)N)C(=O)N[C@@H](CCC(N)=O)C(=O)N[C@@H](Cc2ccc(O)cc2)C(=O)N[C@@H](CCC(=O)O)C(=O)N[C@@H](CC(C)C)C(=O)N[C@@H](CC(C)C)C(=O)O)NC(=O)[C@H](CCCNC(=N)N)NC(=O)[C@H](CCC(N)=O)NC1=O (stereo partly drawn) [compound 8, Ac-FNDCRD[S5IQRS5]HLRQYELL-OH] (Ac-FNDCRD[S5][Ile(3ξ)]QR[S5]HLRQYELL-OH; staple (Z) 7-11)
- Shift ([1]; Table 4, ratio IC50 β2AR alone / IC50 β2AR + peptidomimetic): 2
- Shift [1, 6]: 3

Molecule: Ac-FN[S5CRDS5]IQRMHLRQYELL-OH [compound 26]
- Shift [1, 7]: 2
- Shift [1, 6]: 2

Molecule: Ac-FN[ECRDK]IQRMHLRQYELL-OH [compound 24]
- Shift [1, 7]: 7
- Shift [1, 6]: 7

Molecule: Ac-KKKFN[PraCRDAzk]IQRMHLRQ1-NaIELL-OH (Ac-KKKFN[Pra′]CRD[Azk]IQRMHLRQ[1Nal]ELL-OH; triazole 6-10) [compound 57]
- Shift ([1]; Table 18c overview, averaged values of IC50 shift): 49

Molecule: QRMHLRQYELL [compound 21, Ac-QRMHLRQYELL-OH]
- Shift [1, 8]: 1
- Shift [1, 9]: 1

Molecule: Ac-RDIIQR[AzkHLRPra]YELL-OH (Ac-RDIIQR[Azk]HLR[Pra′]YELL-OH; triazole 7-11) [compound 19]
- Shift [1, 9]: 5

Molecule: RDIIQRMHLRQYELL [compound 16, Ac-RDIIQRMHLRQYELL-OH]
- Shift [1, 8]: 1
- Shift [1, 9]: 1

Molecule: CCC(C)[C@@H]1NC(=O)[C@@H](NC(=O)[C@H](CC(=O)O)NC(=O)[C@H](CCCNC(=N)N)NC(=O)[C@H](CS)NC(=O)[C@H](CC(=O)O)NC(=O)[C@H](CC(N)=O)NC(=O)[C@H](Cc2ccccc2)NC(C)=O)CCC(=O)NCCCC[C@@H](C(=O)N[C@@H](Cc2c[nH]cn2)C(=O)N[C@@H](CC(C)C)C(=O)N[C@@H](CCCNC(=N)N)C(=O)N[C@@H](CCC(N)=O)C(=O)N[C@@H](Cc2ccc(O)cc2)C(=O)N[C@@H](CCC(=O)O)C(=O)N[C@@H](CC(C)C)C(=O)N[C@@H](CC(C)C)C(=O)O)NC(=O)[C@H](CCCNC(=N)N)NC(=O)[C@H](CCC(N)=O)NC1=O (stereo partly drawn) [compound 5, Ac-FNDCRD[EIQRK]HLRQYELL-OH] (HELM PEPTIDE1{[ac].F.N.D.C.R.D.E.[CCC(C)[C@H](N[*:1])C(=O)[*:2]].Q.R.K.H.L.R.Q.Y.E.L.L}$PEPTIDE1,PEPTIDE1,8:R3-12:R3$$$V2.0)
- Shift ([1]; Table 3, ratio IC50 β2AR alone / IC50 β2AR + peptidomimetic): 4
- Shift [1, 6]: 4

Molecule: CCC(C)[C@@H]1NC(=O)[C@@H](NC(=O)[C@H](CC(=O)O)NC(=O)[C@H](CCCNC(=N)N)NC(=O)[C@H](CS)NC(=O)[C@H](CC(=O)O)NC(=O)[C@H](CC(N)=O)NC(=O)[C@H](Cc2ccccc2)NC(C)=O)Cc2cn(nn2)CCCC[C@@H](C(=O)N[C@@H](Cc2c[nH]cn2)C(=O)N[C@@H](CC(C)C)C(=O)N[C@@H](CCCNC(=N)N)C(=O)N[C@@H](CCC(N)=O)C(=O)N[C@@H](Cc2ccc(O)cc2)C(=O)N[C@@H](CCC(=O)O)C(=O)N[C@@H](CC(C)C)C(=O)N[C@@H](CC(C)C)C(=O)O)NC(=O)[C@H](CCCNC(=N)N)NC(=O)[C@H](CCC(N)=O)NC1=O (stereo partly drawn) [compound 11, Ac-FNDCRD[PraIQRAzk]HLRQYELL-OH] (Ac-FNDCRD[Pra][Ile(3ξ)]QR[Lys(N3)]HLRQYELL-OH; triazole 7-11)
- Shift ([1]; Table 5, ratio IC50 β2AR alone / IC50 β2AR + peptidomimetic): 7
- Shift [1, 6]: 7

B8: compound 22 (peptide)
peptide: Ac-FN[Pra′]CRD[Azk]IQRMHLRQYELL-OH
- Shift (averaged) [5]: 9

Next, values leading:

- Shift (averaged) [2]: 63
B1: compound 65 (peptide)
peptide: Ac-KKKRDIIQR[Lys(N3)]HLR[Pra′]YE[Cha]L-OH
modifications: triazole 10-14

- Shift (averaged) [2]: 87
- Fraction HI (%) [3]: 91%
- IC50 (nM) of isoproterenol, [3H]-DHA RLA, peptidomimetic present [3]: 17.1 nM
- Shift [3]: 93
B2: compound 62 (peptide)
peptide: Ac-KKKFN[Pra″]CRD[Lys(N3)]IQRMHLRQYEFL-OH
modifications: triazole 6-10

- Shift (averaged) [2]: 49
B3: compound 57 (peptide)
peptide: Ac-KKKFN[Pra]CRD[Lys(N3)]IQRMHLRQ[1Nal]ELL-OH
modifications: triazole 6-10

- IC50 (nM) of isoproterenol, [3H]-DHA RLA, peptidomimetic present [4]: 616 nM
- Shift [4]: 1
- Shift (averaged) [2]: 1
B4: compound 78 (peptide)
peptide: Ac-FNDCRDIIQRMHLRQAELL-OH

- Shift (averaged) [2]: 9
B5: compound 83 (peptide)
peptide: Ac-NARRIFNDARDIIQRMHLRQYEWL-OH

- Shift (averaged) [2]: 8
B6: compound 81 (peptide)
peptide: Ac-NARRIFNDARDIIQRMHLRQYELL-OH

- Shift (averaged) [2]: 81
B7: compound 64 (peptide)
peptide: Ac-RDIIQR[Lys(N3)]HLR[Pra′]YE[Cha]L-OH
modifications: triazole 7-11

- Shift (averaged) [2]: 39
B9: compound 58 (peptide)
peptide: Ac-KKKFN[Pra′]CRD[Azk]IQRMHLRQ[2Nal]ELL-OH
modifications: triazole 6-10

- IC50 (nM) of isoproterenol, [3H]-DHA RLA, peptidomimetic present [4]: 175 nM
- Shift [4]: 5
- Shift (averaged) [2]: 5
B10: compound 77 (peptide)
peptide: Ac-FNDCRDIIQRMHLRQYALL-OH

- Shift (averaged) [2]: 2
B11: compound 70 (peptide)
peptide: Ac-FNDCRDIIQRMHLRQYEYL-OH

- Shift (averaged) [2]: 35
- Fraction HI (%) [3]: 62%
- IC50 (nM) of isoproterenol, [3H]-DHA RLA, peptidomimetic present [3]: 54.6 nM
- Shift [3]: 29
B12: compound 68 (peptide)
peptide: Ac-FNDCRDIIQRMHLRQYEFL-OH

- IC50 (nM) of isoproterenol, [3H]-DHA RLA, peptidomimetic present [4]: 1070 nM
- Shift [4]: 1
- Shift (averaged) [2]: 1
B13: compound 76 (peptide)
peptide: Ac-FNDCRDIIQRMHLRQYEAL-OH

- Shift (averaged) [2]: 1
B14: compound 71 (peptide)
peptide: Ac-FNDCRDIIQRMHLRQYEHL-OH

- Shift (averaged) [2]: 5
B15: compound 75 (peptide)
peptide: Ac-FNDARDIIQRMHLRQYELL-OH

- Shift (averaged) [2]: 27
- Fraction HI (%) [3]: 51%
- IC50 (nM) of isoproterenol, [3H]-DHA RLA, peptidomimetic present [3]: 28.9 nM
- Shift [3]: 55
B16: compound 69 (peptide)
peptide: Ac-FNDCRDIIQRMHLRQYEWL-OH
